Laboratory results published in PMC10996581 (The Journal of Cell Biology, 2024).
Where two headings read alike, the source gives them in different places. Where no end group is shown, it is not given here. The star is where a group is joined. 5FAM = O=C1OC2(c3ccc(O)cc3Oc3cc(O)ccc32)c2ccc(C(=O)*)cc21

T1: His6-IRE1αLD (human, UniProt O75460 24-443)
T1 sequence: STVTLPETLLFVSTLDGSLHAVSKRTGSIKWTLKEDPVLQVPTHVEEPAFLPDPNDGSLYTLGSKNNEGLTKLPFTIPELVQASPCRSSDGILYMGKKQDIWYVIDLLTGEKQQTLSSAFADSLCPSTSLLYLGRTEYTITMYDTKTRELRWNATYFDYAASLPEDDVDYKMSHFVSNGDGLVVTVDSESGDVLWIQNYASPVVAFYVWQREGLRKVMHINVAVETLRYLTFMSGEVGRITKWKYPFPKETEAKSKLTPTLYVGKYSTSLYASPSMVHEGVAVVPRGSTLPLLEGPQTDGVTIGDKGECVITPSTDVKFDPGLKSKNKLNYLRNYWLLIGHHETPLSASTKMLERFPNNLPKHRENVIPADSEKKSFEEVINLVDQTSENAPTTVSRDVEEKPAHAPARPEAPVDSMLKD

B1: IRE1α_(Y358-L369) peptide, 5-FAM labelled, wild-type sequence (peptide)
peptide: 5FAM-YWLLIGHHETPL
B2: CTxA_(I124-F132) peptide, 5-FAM labelled, wild-type sequence (peptide)
peptide: IYGWYRVHF
modifications: also: 5-FAM labelled, position not given here
B3: unlabeled IRE1α_(Y358-L369) peptide, wild-type sequence (peptide)
peptide: YWLLIGHHETPL
B4: human IgG light chain variable domain (VL) peptide, 5-FAM labelled (peptide)
peptide: 5FAM-YLAWYQQKP

Experiments:
Experiment in all cases: […]
His6-IRE1αLD [1] = biological target: T1, His6-IRE1αLD
[2] = biological target: B2
His6-IRE1αLD [3] = biological target: T1, His6-IRE1αLD; remark: listed apart in the source

B1
Kd (His6-IRE1αLD [1]): 0.24 mM

B2
binding result (His6-IRE1αLD [1]): binds

B3
fold weaker affinity than either peptide alone binding to IRE1αLD [2]: ≥ 10 fold
binding result (His6-IRE1αLD [3]): binds

B4
Kd (His6-IRE1αLD [1]): 219 mM
